One series relates to HA-NDR1. Nature of the series: Immunodetection of HA-NDR1 phosphorylated on Ser281 or Thr444 from COS-1 cells. It is filed as cell-based, human. The protocol: (§1) Either 1 microgram GST-NDR1 or HA-NDR1 immunoprecipitated from 100 microgram COS-1 detergent extracts as described above was separated on 10% SDS-PAGE and immunoblotted 2 h at RT or overnight at 4° C. with anti-Ser281P antisera (1:1000) in the presence of 50 microg/ml competing unphosphopeptide or anti-Thr444P purified antibody (1:500). Both antibodies were detected with horseradish peroxidase-conjugated donkey anti-rabbit Ig antibody (Amersham biosciences) and developed by ECL (chemiluminescence; Amersham Pharmacia Biotech).
To examine this possibility, extracts from transfected COS-1 cells were analyzed with the anti-Ser281P and anti-Thr444P antisera. Protein extracts (10 microg) from transfected COS-1 cells were immunoblotted with 12CA5 to verify similar expression levels of each HA-NDR1 construct. For the analysis of phosphorylation status, 12CA5-immunoprecipitated HA-NDR1 variants (out of 100 microg protein extract) were analysed by immunoblotting with phosphospecific antibodies directed against P-S281 or P-T444.
Protein extracts (10 microg) from mock- and HA-NDR1-transfected COS-1 cells were also immunoblotted with 12CA5 to verify equal expression levels of HA-NDR1 construct. For the analysis of phosphorylation status, 12CA5-immunoprecipitated HA-NDR1 (out of 100 microgram protein extract) was analysed by immunoblotting with phosphospecific antibodies directed against P-S281 or P-T444.

Series [1] concerns GST-NDR1. Nature of the series: GST-NDR1 kinase assay (peptide kinase assay). The class given is biochemical, human. Set-up: Specific activity of GST-NDR1 variants, CTRL / Specific activity of GST-NDR1 variants, −S100B / Specific activity of GST-NDR1 variants, +S100B: unit not given here. The settings on record: for Specific activity of GST-NDR1 variants, −S100B: autophosphorylated 2 h in the absence of CaCl2 and S100B; for Specific activity of GST-NDR1 variants, +S100B: autophosphorylated 2 h in the presence of 1 mM CaCl2 and 10 mM bovine S100B; for Specific activity of GST-NDR1 variants, CTRL: left without further treatment. The protocol:
(§2) 1 microgram of purified recombinant GST-NDR1 wild type and mutants (without further treatment or autophosphorylated for 2 h in the presence or absence of 1 mM CaCl2 and […] (Sigma)) were assayed in 20 microliter of reaction mixture containing 20 mM Tris-HCl pH 7.5, 10 mM MgCl2, 1 mM DTT, 100 microM [gamma-^32P]ATP (˜0.5 microCi/microliter), and 1 mM NDR1 substrate peptide ([…]; SEQ ID NO:22). After 30 mins incubation at 30° C., reactions were stopped with 50 mM EDTA, and 10 microliters of reaction mixture were spotted onto 2 cm^2 squares of P81 phosphocellulose paper (Whatman). These were subsequently washed for 4×5 min and 3×20 min in 1% phosphoric acid and once in acetone before counting in a liquid scintillation counter. One unit of NDR1 activity was defined as the amount which catalyses the phosphorylation of 1 nmol peptide substrate in 1 min.
(§3) Specific activity of GST-NDR1 mutants was also measured by a peptide kinase assay as described above. For this purpose, 1 microgram of purified GST-NDR1 wild type and alanine mutants were left without further treatment or autophosphorylated for 2 h in the presence or absence of 1 mM CaCl2 and […].

The test system of series [2] is GST-NDR1. Nature of the series: Immunodetection of GST-NDR1 phosphorylated on Ser281 or Thr444 after in vitro autophosphorylation. It is filed as biochemical, human. The settings on record: in vitro autophosphorylation with or without Ca2+/S100B. The protocol:
as §1
To reliably quantify the effect of S100B on NDR1 phosphorylation status, rabbit polyclonal antibodies were raised against phosphoepitopes comprising Ser281 or Thr444. GST-NDR1 mutants were treated essentially as described in Example 2 and detected either with anti-NDR1_C-term antiserum or polyclonal antibodies recognising NDR1 phosphorylated on Ser281 or Thr444.

Series [3] has as its target T1, GST-NDR1 (Homo sapiens, UniProt Q15208, T444A).
T1 construct: made in house; host or cells: E. coli BL21-DE3-pRep4
The experiment in a line: GST-NDR1 kinase assay (peptide kinase assay). It is filed as biochemical. Conditions: compared with wild type. Set-up: Specific activity of GST-NDR1 variants, CTRL / Specific activity of GST-NDR1 variants, −S100B / Specific activity of GST-NDR1 variants, +S100B: unit not given here. How it is done: as §2, §3

T1 sequence (Q15208 whole entry T444A): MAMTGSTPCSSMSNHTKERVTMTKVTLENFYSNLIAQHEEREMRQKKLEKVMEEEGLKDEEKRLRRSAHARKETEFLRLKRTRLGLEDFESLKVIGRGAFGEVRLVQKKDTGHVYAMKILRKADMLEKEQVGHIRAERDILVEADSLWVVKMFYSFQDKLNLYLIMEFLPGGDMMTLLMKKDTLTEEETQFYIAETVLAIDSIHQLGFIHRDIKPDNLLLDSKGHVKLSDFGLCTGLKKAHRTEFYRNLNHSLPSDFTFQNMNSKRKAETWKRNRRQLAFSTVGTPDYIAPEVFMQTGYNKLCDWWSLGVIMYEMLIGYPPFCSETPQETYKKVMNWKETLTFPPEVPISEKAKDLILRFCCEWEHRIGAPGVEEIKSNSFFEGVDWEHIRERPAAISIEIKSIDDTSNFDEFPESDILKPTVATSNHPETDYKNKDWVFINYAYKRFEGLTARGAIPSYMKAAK

On to “K118A: NDR1 kinase dead mutant, Lys 118 to alanine; GST fusion or HA-tagged”, for which the “phosphorylation of HA-NDR1 on Ser281” value in the series with HA-NDR1 (immunoblot with anti-P-S281) is “did not display any phophorylation on this position”. The “phosphorylation of HA-NDR1 on Thr444” value in the series with HA-NDR1 (immunoblot with anti-P-T444) is recorded as “became phosphorylated even after abolishing the kinase activity”. For the same substance, in the series on GST-NDR1 [1], the “Specific activity of GST-NDR1 variants, −S100B” value (“Specific activity … −S100B” for short) amounted to 0.272; the “Specific activity of GST-NDR1 variants, +S100B” value (shortened to “Specific activity … +S100B”) is on record as 0.222; the “Specific activity of GST-NDR1 variants, CTRL” value (“Specific activity … CTRL” below) worked out at 0.158.
Regarding “T74A: NDR1 alanine mutant of phosphorylation residue Thr74; GST fusion or HA-tagged”, the “phosphorylation of GST-NDR1 on Ser281 and Thr444 (phosphospecific antibodies)” value with GST-NDR1 [2] was “abolished the S100B-mediated increase of phosphorylation for both Ser281 and Thr444 residues”. In the series with GST-NDR1 [1], the “Specific activity … −S100B” value worked out at 3.786; the “Specific activity … +S100B” value was 7.818; the “Specific activity … CTRL” value worked out at 1.006. The “kinase activity of GST-NDR1 mutant (in words)” value in the series on GST-NDR1 [1] (compared with wild type) is given as “negligible reduction”.
With “T444A: NDR1 alanine mutant of phosphorylation residue Thr444; GST fusion or HA-tagged”, in the series on GST-NDR1 [2], the “phosphorylation of GST-NDR1 on Ser281 and Thr444 (phosphospecific antibodies)” value was “almost normal autophosphorylation on Ser281”. Also, in the series on GST-NDR1 [1], the “Specific activity … −S100B” value was 1.92; the “Specific activity … +S100B” value came to 3.974; the “Specific activity … CTRL” value was 0.564. For the same substance, the “decrease of kinase activity of GST-NDR1 mutant” value with GST-NDR1 [3] is “about 5 fold”.
